In publication PMC2064834 (The Journal of Cell Biology, 2007):

T1: Hs-laforin (Homo sapiens, UniProt O95278)
T1 sequence (O95278 1-331): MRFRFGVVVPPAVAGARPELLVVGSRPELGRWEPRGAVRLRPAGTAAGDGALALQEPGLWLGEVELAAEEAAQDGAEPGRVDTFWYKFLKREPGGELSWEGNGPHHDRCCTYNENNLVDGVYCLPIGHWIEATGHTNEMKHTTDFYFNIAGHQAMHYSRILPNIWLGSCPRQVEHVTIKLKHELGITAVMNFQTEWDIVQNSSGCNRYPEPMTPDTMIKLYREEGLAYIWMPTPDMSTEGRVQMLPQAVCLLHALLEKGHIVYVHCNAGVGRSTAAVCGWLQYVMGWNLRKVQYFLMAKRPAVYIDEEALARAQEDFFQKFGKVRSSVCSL

B1: Δ52-SEX4 (Arabidopsis thaliana) (protein)
chain: AVSESKSSSEMSGVAKDEEKSDEYSQDMTQAMGAVLTYRHELGMNYNFIRPDLIVGSCLQTPEDVDKLRKIGVKTIFCLQQDPDLEYFGVDISSIQAYAKKYSDIQHIRCEIRDFDAFDLRMRLPAVVGTLYKAVKRNGGVTYVHCTAGMGRAPAVALTYMFWVQGYKLMEAHKLLMSKRSCFPKLDAIRNATIDILTGLKRKTVTLTLKDKGFSRVEISGLDIGWGQRIPLTLDKGTGFWILKRELPEGQFEYKYIIDGEWTHNEAEPFIGPNKDGHTNNYAKVVDDPTSVDGTTRERLSSEDPELLEEERSKLIQFLETCSEAEV

Experiments:
Hs-laforin = molecular target: T1, Hs-laforin; experiment: p-NPP hydrolysis, absorbance at […] nm; format: biochemical; conditions: pH 5.5; 37°C; 2 mM DTT; artificial substrate
purified protein = substrate: O=[N+]([O-])c1ccc(OP(=O)(O)O)cc1; experiment: purified protein; conditions: pH 6.0, 37°C, 2 mM DTT, artificial substrate

| Molecule | Km (Hs-laforin) [µM] | Km (purified protein) [µM] | Vmax (purified protein) [µmol/min/mg] | kcat (purified protein) [s⁻¹] | kcat/Km (purified protein) [M⁻¹ s⁻¹] |
| --- | --- | --- | --- | --- | --- |
| O=[N+]([O-])c1ccc(OP(=O)(O)O)cc1 [p-NPP] | 323 |  |  |  |  |
| B1 |  | 410 | 2.41 | 1.54 | 3756 |
